For one protein, Km and kcat/Km results are on record in publication PMC8325564.

Substrate in the data set: Nc1nc2c(ncn2[C@@H]2O[C@H](COP(=O)(O)OP(=O)(O)OP(=O)(O)O)[C@@H](O)[C@H]2O)c(=O)[nH]1
The data set can be described thus: coupled enzymatic assay of AK3 activity. In kind it is biochemical, human. The settings on record: other: GTP as varied substrate, 300 μM AMP, 2 mM MgCl2.

B1: human AK3 (Homo sapiens) (protein)
chain: MGASARLLRAVIMGAPGSGKGTVSSRITTHFELKHLSSGDLLRDNMLRGTEIGVLAKAFIDQGKLIPDDVMTRLALHELKNLTQYSWLLDGFPRTLPQAEALDRAYQIDTVINLNVPFEVIKQRLTARWIHPASGRVYNIEFNPPKTVGIDDLTGEPLIQREDDKPETVIKRLKAYEDQTKPVLEYYQKKGVLETFSGTETNKIWPYVYAFLQTKVPQRSQKASVTP
With B1, the Km (as a rule, the substrate concentration at which the rate is half of its maximum) was 10 ± 1.5 µM and the kcat/Km – broadly, the second-order rate constant that governs catalysis at low substrate concentration – was found to be 5.7e+06 ± 900000 M⁻¹ s⁻¹.
